Source: publication PMC11992174

Molecular target: MtbClpC1^F444S-E288A-E626A (Mycobacterium tuberculosis) (UniProt P9WPC9)
Test: cryo-EM structure

MtbClpC1^F444S-E288A-E626A (from UniProt P9WPC9 1-848) (enzyme)
stoichiometry N: 6
